From patent US10653749B2, “Targeting GIV-GEF-GI signaling for treating diverse diseases” (The Regents of the University of California, priority 2015, dated 2020)
“Also recorded” adds a separate entry of the source.

Columns and labels:
HeLa cells = assay: Actin cytoskeleton remodeling in HeLa cells (phalloidin staining, confocal); format: cell-based; conditions: ~400 nM TAT peptide
Experimental: HeLa cell lines were fixed at room temperature with 3% paraformaldehyde for 20-25 min, permeabilized (0.2% Triton X-100) for 45 min and incubated for 1 h each with primary and then secondary antibodies as described (7). Dilutions of antibodies and reagents were as follows: His (1:500); Phalloidin (1:1,000); DAPI (1: 2,000); secondary goat anti-rabbit (594) and goat anti-mouse (488) Alexa-conjugated antibodies (1:500). Coverslips were mounted with ProLong Gold (Life Technologies). Cells were imaged on a Leica SPE confocal microscope using a 63× oil objective using 488, 561, and 405 laser lines for excitation. Images were scanned using a line-average of 3. All images were processed using ImageJ software and assembled into figure panels using Photoshop and Illustrator (Adobe).
For TAT-protein transduction, cells were incubated with 400-800 nM of the TAT-proteins for 30 min at 37° C. prior to three washes with PBS and addition of fresh growth media. For analysis of EGF signaling, subconfluent monolayers of HeLa cells were treated with TAT proteins for 30 min, washed with PBS, and subsequently stimulated with EGF (50 nM) at 4 h after TAT transduction. For scratch-wound assays, HeLa monolayers were treated with TAT proteins before and at 12 h after wounding. For cancer cell invasion assays, highly invasive MDA MB 231 breast cancer cells were plated in 6-well dishes, treated with TAT-peptides for 30 min and subsequently lifted and placed in transwell chamber in the presence of serum-free media. For L×2 myofibroblast activation assays, cells were first treated with TAT-proteins for 30 min, starved in serum-free media, and subsequently treated with 1.5 ng/ml TGF-β for 24 h. TAT-protein transduction was repeated every 8 h during the course of TGFβ stimulation (total 3 treatments). For assays involving insulin stimulation of TAT-treated L6 myotubes, such stimulation was carried out 90 min after transduction. In each case, whole cell lysates prepared from cells in duplicate wells were analyzed for signaling pathways and TAT-protein uptake by immunoblotting.

[1] = target: T1, Gαi1-YFP / CFP-Gβ1 / Gγ2 heterotrimer (Gi) (Homo sapiens, UniProt P63096); assay: FRET assay of Gi heterotrimer dissociation after EGF in GIV-depleted HeLa cells; format: cell-based
T1 construct: expressed in transfected cells; host or cells: HeLa cells stably depleted of GIV by shRNA
T1 sequence (P63096 2-354 limits assumed, one chain of several): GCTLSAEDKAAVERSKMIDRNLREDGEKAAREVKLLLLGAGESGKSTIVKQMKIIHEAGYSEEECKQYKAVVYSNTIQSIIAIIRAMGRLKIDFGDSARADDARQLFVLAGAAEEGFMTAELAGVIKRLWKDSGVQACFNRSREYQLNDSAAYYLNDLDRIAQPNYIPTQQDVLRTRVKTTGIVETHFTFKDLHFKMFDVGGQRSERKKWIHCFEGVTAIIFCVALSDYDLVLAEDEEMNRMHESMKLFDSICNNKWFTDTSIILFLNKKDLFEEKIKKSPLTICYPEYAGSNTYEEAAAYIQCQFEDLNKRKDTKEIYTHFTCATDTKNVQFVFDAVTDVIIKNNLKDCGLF
Experimental: HeLa cells stably depleted of GIV by shRNA were grown to 60-70% confluence in sterile 35 mm MatTek glass bottom dishes. One microgram each of various donor and acceptor plasmid constructs were transfected with Trans-IT-LT1 transfection reagent (Minis Bio LLC) using manufacturer's protocol. Cells were starved overnight in serum-free DMEM (Gibco), transduced the following morning with TAT proteins for 30 min, washed with PBS and subsequently the media was switched to DMEM without phenol red before live cell imaging. EGF stimulation was carried out ˜4 h after TAT transduction. Fluorescence microscopy studies were conducted on single cells in mesoscopic regime to avoid inhomogeneities from samples as previously rationalized by Midde et al. (55-57). Olympus FV1000 inverted confocal laser scanning microscope was used for live cell FRET imaging (UCSD-Neuroscience core facility). The microscope is stabilized on a vibration proof platform, caged in temperature controlled (37° C.) and CO2 (5%) supplemented chamber. A 60×1.49 N. An oil immersed objective designed to minimize chromatic aberration and enhance resolution for 405-605 nm imaging was used. Olympus Fluoview inbuilt software was used for data acquisition through the method of sensitized emission. A 405 nm laser diode was used to excite ECFP and 515 nm Argon-ion laser was used to excite EYFP. The bandwidth of spectral emission was adjusted through grating to minimize bleed through. Enhanced CFP emission was collected from 425 to 500 nm and EYFP emission was collected through 535-600 nm and passed through a […] confocal pinhole before being sent to photomultiplier tube to reject out of plane focused light. Every field of view is imaged sequentially through ECFPex/ECFPem, ECFPex/EYFPem and EYFPex/EYFPem (3 excitation and emission combinations) and saved as donor, transfer and acceptor image files through an inbuilt wizard.
To obtain the FRET images and efficiency of energy transfer values a RiFRET plugin in Image J software was used (58). FRET images were obtained by pixel-by-pixel ratiometric intensity method and efficiency of transfer was calculated by the ratio of intensity in transfer channel to the quenched (corrected) intensity in the donor channel. Cells transfected with CFP and YFP alone were imaged under all three previously mentioned excitation and emission combinations and are used to correct for cross-talk. Furthermore, untransfected cells and a field of view without cells were imaged to correct for background, autofluorescence and light scattering. Cells chosen for imaging were ensured for identical expression of donor and acceptor probes by the photons collected in individual channels.

L6 myotubes = assay: Uptake of TAT peptides and actin staining in L6 myotubes (confocal); format: cell-based, rat; conditions: 0.2% FBS overnight
From the text: Dilutions of antibodies are as follows: anti-phospho-GIV-Tyr1764 (1:200) (Ventana/Roche and Spring Biosciences); anti-HA (1:300) (Covance); anti-GFP, mouse anti-InsRβ and mouse anti-phospho-IRS1 (1:200) from Santa Cruz Biotechnologies; DAPI 1:1,000 (Molecular Probes); Secondary goat anti-rabbit (594) and goat anti-mouse (488) Alexa conjugated antibodies (1:500) from Molecular Probes. Coverslips were mounted with ProLong Gold (Life Technologies). Cells were imaged on a Leica SPE confocal microscope using a 63× oil objective using 488, 561 and 405 laser lines for excitation. Images were scanned using a line-average of 3. All images were processed using ImageJ software and assembled into figure panels using Photoshop and Illustrator (Adobe).
Transfection was carried out with GeneJuice (Novagen) for DNA plasmids or Oligofectamine (Invitrogen) for siRNA oligos according to manufacturer's protocols. Silencer negative Control scrambled (Scr) siRNA used as control was purchased from Ambion and the previously validated (Enomoto et al., 2005) GIV siRNA sequence used was custom-ordered from Dharmacon. For TAT-construct transduction, cells were incubated with 300-800 nM of the TAT-proteins for 30 min at 37° C. prior to three washes with PBS and addition of fresh growth media. […]

| Molecule | actin remodeling / actin stress fibers (HeLa cells) | actin remodeling / actin stress fibers (HeLa cells; listed as WT) | loss of FRET / dissociation of trimeric Gi in response to EGF ([1]; 50 nM EGF, 5 min) | FRET after EGF stimulation ([1]; 50 nM EGF, 5 min, p=0.0011) | FRET before EGF stimulation ([1]; plasma membrane ROIs, t0) | actin stress-fiber formation in L6 myotubes (L6 myotubes) | loss of FRET / dissociation of trimeric Gi in response to EGF ([1]; 50 nM EGF, 5 min, listed as FA) |
| --- | --- | --- | --- | --- | --- | --- | --- |
| TAT-GIV-CT-WT: Recombinant cell-permeable fusion of TAT-PTD, His and HA tags, linker and human GIV C-terminus (aa 1660-1870), wild type; SEQ ID NO: 2 (protein) MRGSHHHHHHGMASMTGGQQMGRDLYDDDDKDRWGSKLGYGRKKRRQRRRGGSTMSGYPYDVPDYAGSMGGSGHSGETLESRHHKIKTGSPGSEVVTLQQFLEESNKLTSVQIKSSSQENLLDEVMKSLSVSSDFLGKDKPVSCGLARSVSGKTPGDFYDRRTTKPEFLRPGPRKTEDTYFISSAGKPTPGTQGKIKLVKESSLSRQSKDSNPYATLPRASSVISTAEGTTRRTSIHDFLTKDSRLPISVDSPPAAADSNTTAASNVDKVQESRNSKSRSREQQSS | triggered actin remodeling | not | significant loss of FRET; also recorded: sufficient to trigger dissociation of trimeric Gi | 0.15±0.07 | 0.22±0.04 | enhancement | – |
| TAT-GIV-CT-FA: GEF-deficient F1685A mutant of the TAT-GIV-CT peptide, dominant-negative; SEQ ID NO: 3 (protein) MRGSHHHHHHGMASMTGGQQMGRDLYDDDDKDRWGSKLGYGRKKRRQRRRGGSTMSGYPYDVPDYAGSMGGSGHSGETLESRHHKIKTGSPGSEVVTLQQALEESNKLTSVQIKSSSQENLLDEVMKSLSVSSDFLGKDKPVSCGLARSVSGKTPGDFYDRRTTKPEFLRPGPRKTEDTYFISSAGKPTPGTQGKIKLVKESSLSRQSKDSNPYATLPRASSVISTAEGTTRRTSIHDFLTKDSRLPISVDSPPAAADSNTTAASNVDKVQESRNSKSRSREQQSS | suppressed the formation of actin stress fibers | – | No similar loss of FRET | – | – | disrupted | not |
